# Experiment: yeast display, Sf9 membrane polyspecificity reagent, FACS + sequencing; frameworks hold sequencing errors
# Summary of the method: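 Sorting gates, low and high (top ~1%), were placed on anti-HA fluorescence to track expression and on streptavidin fluorescence to track reagent binding. A clone's polyreactivity label is taken from the gate it came out of. The reagent was 10% biotinylated, detergent-solubilized Sf9 membrane, applied for 1 hour at 4 °C to galactose-induced yeast display cells.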
row,Sequence,polyreactivity (PSR sort gate)
1,QVQLVESGGGLVQEGGSLRLRCAASGSIFYRYAMGWYRQAPGKERELVAAISSTGSTYYADSVKGRFTISRDNAKNTVYLQMNSLKPEDTAVYYCAARQGYRSYRRYDYWGQGTQVTVSS,high polyreactivity
2,QVQLVESGGGLVQEGGSLRLSCAACGFTFTTNAMGWYRQAPGKERELVAGITFIGGSTYYADSVKGRFTISRDNAKNTVYLQMNNLKPEDTAVYYCAAEWVLVYLQYTYEDYDYWGQGTQVTVSS,low polyreactivity
3,QVQLVESGGGLVQEGGSLRLSCAASGFIFFLNAMGWYRQAPGKERELVAAISSSGGRTYYADSVKGRFTISRDNAKITVYLQMNSLKTEVTAVYYCNAVTLYRSRTDGYWGQGTQVTVSS,high polyreactivity
4,QVQLVESGGGLVQEGGSLRLSCAASGFIFRSYAMGWYRKAPGKERELVAAISSSGGSTYYADSVKGRFTISRDNAKNTVYLPMNSLKPEDTAVYYCAKGYQRGRDYWGQGTQVTVSS,high polyreactivity
5,QVQLVESGGGLVQEGGSLRLSCAASGFSFERNAMGWDRQAPGKERELVATIPWSGTRTNYADSVKGRFTISRDNAKNTVYVQMNSLKPEDTAVYYCAVVVSAPSRESKSTVQMDYWGQGTQVTVSS,high polyreactivity
6,QVQLVESGGGLVQEGGSLRLSCAASGFTFGSYAMGWYRQAPGTERELLAAITTDGSTYYADSVKGRFTISRDNAKNTVYLHMNSLKREDTAVYYCAAGYSYDRYGSDMDYWGQGTQVTVSS,low polyreactivity
7,QVQLVESGGGLVQEGGSLRLSCAASGITFDNYDMGWYRQAPGKERELVAAISSDDNTTYADSVKGRFTISRDNAMNTVYFQMNSLKTDDTAVYYCAADYRIYGYLEYDYWGQGTQVTVSS,low polyreactivity
8,QVQLVESGGGLVQEGGSLRLSCAASGITFDYYAMGLYRQAPGKERELVASISYSGGSTYADSVKGRFTISRDNAKNTVYLQMNSLKPEDTAVYYCAKDSQETAYNTVDYCGQGTQVTVSS,low polyreactivity
9,QVQLVESGGGLVQEGGSLRLSCAASGLIVGQNAMGWYRQAPGKDRELVAAISQRGGTYYADSVKGRFTISRDNAKNTVYLQMNSLKPEDTAVLYCAARVGLQPGRYYLRYDYWGQGTQVTVSS,low polyreactivity
10,QVQLVESGGGLVQEGGSLRLSCAASGNTVGINAMGWYRQAPGKERELVASISFTGSSTYYADSVKGRFTISRDNAKNTVYFQMNSLKPEDTAVSYCNRDRITLYEYDYWGQGTQVTVSS,low polyreactivity
11,QVQLVESGGGLVQEGGSLRLSCAASGRIIERSAMGWYRQAPGKERELVAGISISGGGTYYADSVKGRFTISRDKAKNTVYLLMNCLKPEDTSVYYCAGTFPREEYGYWGQGTQVTVSW,low polyreactivity
12,QVQLVESGGGLVQEGGSLRLSCAASGRIIEYNTMGLNRPATGKERELVAAITGGTGSTYYADSVKGRFTISRDNAKNTVYLQMNSLIPVDTSVYYCNADGMILYDYWGQGTQVTVSS,low polyreactivity
13,QVQLVESGGGLVQEGGSLRLSCAASGRTFDRYAMGWYRQAPGKERELVAAITWTGGSTYYADSVKGRFTISRDNAKNTVYLQMNSLKPEDTAFYYCNRAPSRPTSKTRLYYWGKGTQVTVSS,high polyreactivity
14,QVQLVESGGGLVQEGGSLRLSCAASGRTFEQNAMGWYRQAPGKERELVASITSVGSTDYADSVKGRFTISRDNAKNTVYLQMNSLKTEDTAVYYCAKTLGSQNYDFDYWGQGTQVTVSS,low polyreactivity
15,QVQLVESGGGLVQEGGSLRLSCAASGRTFVPYAMGWYRQAPGKERELVAAISRSGGRTYYADSVKGRFTLSRDNAKNTVYLQMKSLKPEDTAVYYCAARYYSEPNAYYYWGQGTQVSVSS,high polyreactivity
16,QVQLVESGGGLVQEGGSLRLSCAASGSIFDDYAMGWYRQAPGKEWELVAAITSGGSTYYADSVKGRFTISRDNAKNTVYLQMNSLKPEDTAVYYRATRYHWSSSFAPVGAYGYWGHGTQVTVSS,low polyreactivity
17,QVQLVESGGGLVQEGGSLRLSCAASGSIFDVYAMGWSRQGPGKERELVAAISSSGSTYYADSVKGRFTISRDNAKNTVYLQMNSLKPEDTAVYYCAAVQADDDDYYYWGQGTQVTVSS,low polyreactivity
18,QVQLVESGGGLVQEGGSLRLSCAASGSIFKPYAMGWYRQAPGKERELVAAINRGGTSTYYADSVKGRFTISRDNAKHTVYLQMNRLKPEDTAVYYCAAEGQDGRFYWGQGTQVTVSS,low polyreactivity
19,QVQLVESGGGLVQEGGSLRLSCAASGSTFGLYAMGWYRQAPGKERELVAAISSRGSRTYYADSVKGRFTISRDNAKNTVYLQMNSLKPEDTAVYYCNAMYASCVRHKVTYDYWGQGTLVTVSS,high polyreactivity
20,QVQLVESGGGLVQEGGSLRLSCAASGSTFNYYAMGWYRQAPGKESELVARISWSGSTYADSVKGRFTISRDNAKNTVYLQMNSLKPEDTAVYYCAAPYVLKSHRGMDYWGQGTQVTVSS,low polyreactivity
21,QVQLVESGGGLVQEGGSLRLSCAASGSTISSYAMGWYRQAPGKERELVAAITSGGSTYYADSVKGRFTFSRDNAKNTVYLQMNSLKPDDTAVYYCDLGSTTMDYWGQGTQVTVSS,low polyreactivity
22,QVQLVESGGGLVQEGGSLRLSCADSGITFWAYAMGWYRQAPGKERELVASISSGGSTYYADSVKGRFTISRDNAKNTVYLQMNSLKPEDTAVYYCNTQDRSEYDWGQGTQVTVSS,high polyreactivity

row,Sequence,polyreactivity (PSR sort gate)
1,QVQLVESGGGLVQEGGSLRLSCADSGSISYQNAMGWYRQAPGKERELVAAISGDGDSTYYADSVKGRFTISRDNAKNTVYLQMNSLNPEDTGVYYCAAEPNVYFSVFVLFPSDYWGQGTQVTVSS,low polyreactivity
2,QVQLVESGGGLVQEGGSLRLSCASSGFTFAYNAMVLYRQAPGKERELVAGINSSGDGTYYADSVKGRFTISRDNAKNTVYLQMNSLKPEETAVYYCAADYTRFYPDGSDVDYDYWGQGTQVTVSS,low polyreactivity
3,QVQLVESGGGLVQEGGSLSLSCAASGITFRSYTMGWYRQAPGKERELLAGITRRGGSTFYADSVKGRFTISRDNATNTVYLQMNSLNPEDTAVYFCAVGFYYLSSWYSYDYRGQGTQVTVSS,high polyreactivity
4,QVQLVESGGGLVQEGRSLRLSCAASGLTFQYYAMGWYRPAPGKERELVAAISSGGDTYYADSVKGRFTISRDNAKNNVYFQMYSVKREDTAVYYCAARVVLYSRSTYYYWGQGTQVTVSS,high polyreactivity
5,QVQLVESGGGLVQEGRSLRLSCAASGSIFTPYAMGWYRQAPGKERELVADINSGGSTDYADSVKGRFTISRDNAKNTVYLQMNSLKPEDTAVYYCASTWSFYFILYDYWGQGTQVTVSS,high polyreactivity
6,QVQLVESGGGLVQERGSLRLSCAASGSIFIPYARGWYRQAPGKERELVAAISLGDGKTYYADSVKGRFTISRDNAKNTVYLQMNSLKPEDTAVYYCNAVPRKFGDEYWGQGTQVTVSS,low polyreactivity
7,QVQLVESGGGLVQEVGSLRLSCAATGRTFYQNVMGWSRQARGKERELVAAISQRGGRTYYADSVKGRFTISRDNAKITVYLQMNSLKPEDTEVYYCNADSTVWPYDYWGQGTQVTVSS,low polyreactivity
8,QVQLVESGGGLVQGGGSLRFSCAASGSTFPSYARGWYRQAPGKERELVAAINSGGGTNYADSVKGRFTISRDNAKNTVYLHMNSLKPEDTAVYYCAKSRYDYTKTEGGYWGQGTQVTVSS,low polyreactivity
9,QVQLVESGGGLVQGGGSLRLRCAASGRSFKWYAMVWYRQAPGKDRELVAGISRGAGRTYYADSEKGRFTISRDNAKNTVYLQMNSLKADDTAVYYCAAVPSYHSTSPFYYWGLGTQVTVSS,high polyreactivity
10,QVQLVESGGGLVQGGGSLRLSCAASGFTFVYYAMGWDRQAPGKERELVAAISRSGGSTYYADSVKGRFTISRDNAKNTFYLQMNSLKPEDTAVYYCAARKNYGSRLSYEYWGQGTQVSVSS,high polyreactivity
11,QVQLVESGGGLVQGGGSLRLSCAASGLIFSYYAMGWYRQAPGKERELVAAISRGGATNYADSVKGRFTISRDTAKNTVYLQMNSLKPEDTAVYYCSARFVLRRDYGYWGQGTQVTVSS,high polyreactivity
12,QVQLVESGGGLVQGGGSLRLSCAASGLIFYRNDMVWNRQAPGKERELVDAISKNGANTYYADSVKGRFTSSRDNAKNTVYLHMNCLKREDTAVYYCAKGVYYPWWYVQPEHDYWGQVTQVTVSS,high polyreactivity
13,QVQLVESGGGLVQGGGSLRLSCAASGRTFYRYVMGWYRQAPGKERELVADISRRGGRTYYADSVKGRFTISRDNAKNTVYLQMNSLKPEDTAVYYCAAGQLGDYWGLGTQVTVSS,high polyreactivity
14,QVQLVESGGGLVQGGGSLRLSCAASGSIFSDNAMGWYRQAPGKERELVATITFSGASTYYADSVKGRFTISRDNAKNTVYLKMNSLKPEDTAVYYCAAEEPDVIAQPGFDYWGQGTQVTVSS,low polyreactivity
15,QVQLVESGGGLVQGGGSLRLSCADSGSTFSSNAMGWYRQAPGKERELVAAITGSGGRTYYADSVKRRFTISRDNAKNTVYLQMNCLKPEDTAVYYCAKRYRGGYWGQGTQVTVSS,high polyreactivity
16,QVQLVESGGGLVQGGGSLSLSCAASGSIFLYYAMGWYRQAPGKERELVAGIRRGGRTNYSDSVKGRFTISRDNAKNNVYLQMNSLKPEDTAVDYCAKGGYCGQGTQVTVSS,high polyreactivity
17,QVQLVESGGGLVQPGGRLLLSSAASGSIFDYYVMGWYRLEPVKERELVAAISWSGASTYYADSVKGRFTISRDNAKNTVYVKMNSLKPEDTAVYYCAADYGVNTLIDYDYWGQGTQVTVSS,low polyreactivity
18,QVQLVESGGGLVQPGGSFHLSCAASGSIFVVYAMGWYRQAPVKERELVAAITSGGSTYYADSVKGRFTISRDNAKKTVYLQMNSLKPEDTAVYYCATTYRDGVYELTTFDYWGQGTQVTVSS,low polyreactivity
19,QVQLVESGGGLVQPGGSLRISCAASGFTFVYYVMGWYRQAPGKERELVAAINAGGGSTYYADSVKGRFTISRDNAKNTVYLQMNSLKPEDTAVYFCNARVRVRLGRNWSSYYYWGQGTEVTVSS,high polyreactivity
20,QVQLVESGGGLVQPGGSLRLSCAASGFIFPTNVMGWSRQAPGKEREFVASITWRGGGTYYADSVKGRFRISRDNAKNTVYVQMNSLKPEDTAVYYCAAGRSWSSYWKYDYWGQGTQVTVSS,low polyreactivity
21,QVQLVESGGGLVQPGGSLRLSCAASGGTFQPNAMVWYRQAPGKERELVAAISWSDGSTYYADSVKGRFTISLDNAKNTVYLQMNSLKPVDTAVYYCAADFTYYDSPYRDYNYESWGQGTQVTVSS,low polyreactivity

# From the nanobody polyreactivity screen of Harvey et al. (2022)
